# From publication PMC2814137, “Crystal Structural and Functional Analysis of the Putative Dipeptidase from Pyrococcus horikoshii OT3” (Journal of Biophysics, 2009)
# What was measured:
# [1] = target: the molecule itself; assay: AUC; sedimentation equilibrium, 20°C, 13 K rpm, three protein concentrations between 0.93 and 0.31 mg/mL, 20 mM Tris pH 8.0, 100 mM NaCl; monomer/dimer
# [2] = substrate: CC(C)[C@H](N)C(=O)N1CCC[C@H]1C(=O)O; assay: colorimetric ninhydrin prolidase assay; format: biochemical, Pyrococcus horikoshii; conditions: 1.2 mM CoCl2, 50 mM MOPS pH 7.0, 100°C, hydrochloride salt
protein,measurement,setting,value
"putative dipeptidase (Phdpd) from Pyrococcus horikoshii OT3 (enzyme, UniProt O58691 1-356, looked up, putative dipeptidase / X-Pro dipeptidase (prolidase), Project ID PH0974, Pyrococcus horikoshii OT3; No tag is mentioned; the plasmid was made by the 'super-rare-cutter system' (manuscript in preparation); A selenomethionine-labelled crystal was used for MAD phasing only; also called PH0974; X-Pro dipeptidase (prolidase) of Project ID PH0974; source: E. coli BL21-CodonPlus (DE3)-RIL, purified …) MRLEKFIHLLGERGFDGALISPGTNLYYLTGLRLHEVGERLAILAVSAEGDYRFLAPSLYENVVNNFPATFWHDGENPYAKLREILEELGISKGRILIEDTMRADWLIGIMKLGKFTFQPLSSLIKELRMIKDKEEVKMMEHASRIADKVFEEILTWDLIGMKERELALKIELLIRELSDGIAFEPIVASGENAANPHHEPGERKIRKGDIIILDYGARWKGYCSDITRTIGLGELDERLVKIYEVVKDAQESAFKAVREGIKAKDVDSRAREVISKAGYGEYFIHRTGHGLGLDVHEEPYIGPDGEVILKNGMTFTIEPGIYVPGLGGVRIEDDIVVDEGKGRRLTKAERELIIL",stoichiometry N,[1],2
same,Km,[2],5.0 mM
same,kcat,[2],541 s⁻¹
